Source: patent publication US20140274782A1, “AFFINITY REAGENTS AND METHODS FOR DETECTION, PURIFICATION, AND PROTEOMIC ANALYSIS OF METHYLATED PROTEINS” (The Board of Trustees of the Leland Stanford Junior …, priority 2013, published 2014)

T1: G9a and GLP (Homo sapiens, UniProt Q96KQ7+Q9H9B1)
T1 sequence (Q96KQ7 2-1210 limits assumed): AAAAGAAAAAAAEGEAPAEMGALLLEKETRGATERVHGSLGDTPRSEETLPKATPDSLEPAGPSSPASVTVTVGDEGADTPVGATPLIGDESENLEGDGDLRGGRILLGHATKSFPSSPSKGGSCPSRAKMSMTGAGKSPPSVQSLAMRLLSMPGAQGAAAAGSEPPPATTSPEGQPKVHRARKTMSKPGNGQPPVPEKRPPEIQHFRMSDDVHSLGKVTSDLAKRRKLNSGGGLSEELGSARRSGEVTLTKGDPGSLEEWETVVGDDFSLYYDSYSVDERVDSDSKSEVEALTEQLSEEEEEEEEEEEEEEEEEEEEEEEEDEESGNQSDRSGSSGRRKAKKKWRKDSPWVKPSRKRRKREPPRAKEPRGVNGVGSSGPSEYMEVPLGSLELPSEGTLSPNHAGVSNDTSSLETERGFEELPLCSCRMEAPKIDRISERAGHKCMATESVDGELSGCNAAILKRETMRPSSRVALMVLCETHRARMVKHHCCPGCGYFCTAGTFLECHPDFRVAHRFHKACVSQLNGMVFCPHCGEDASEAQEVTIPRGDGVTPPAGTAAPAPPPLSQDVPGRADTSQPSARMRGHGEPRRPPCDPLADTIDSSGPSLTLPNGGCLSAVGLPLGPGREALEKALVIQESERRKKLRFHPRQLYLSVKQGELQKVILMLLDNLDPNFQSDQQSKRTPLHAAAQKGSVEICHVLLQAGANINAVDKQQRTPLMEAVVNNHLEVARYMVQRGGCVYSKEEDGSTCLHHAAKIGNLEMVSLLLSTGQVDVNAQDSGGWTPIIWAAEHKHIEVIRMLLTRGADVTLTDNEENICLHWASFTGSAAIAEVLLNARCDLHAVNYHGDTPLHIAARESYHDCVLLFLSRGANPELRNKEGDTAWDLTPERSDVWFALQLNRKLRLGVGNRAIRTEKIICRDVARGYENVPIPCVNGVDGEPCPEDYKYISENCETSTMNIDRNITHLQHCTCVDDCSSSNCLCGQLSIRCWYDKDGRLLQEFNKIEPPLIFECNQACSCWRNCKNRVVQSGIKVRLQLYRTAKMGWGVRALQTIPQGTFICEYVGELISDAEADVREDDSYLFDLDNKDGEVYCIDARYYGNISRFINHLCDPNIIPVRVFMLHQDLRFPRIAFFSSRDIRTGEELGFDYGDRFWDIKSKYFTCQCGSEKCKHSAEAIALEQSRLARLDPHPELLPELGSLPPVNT
T1 sequence (Q9H9B1 2-1298 limits assumed): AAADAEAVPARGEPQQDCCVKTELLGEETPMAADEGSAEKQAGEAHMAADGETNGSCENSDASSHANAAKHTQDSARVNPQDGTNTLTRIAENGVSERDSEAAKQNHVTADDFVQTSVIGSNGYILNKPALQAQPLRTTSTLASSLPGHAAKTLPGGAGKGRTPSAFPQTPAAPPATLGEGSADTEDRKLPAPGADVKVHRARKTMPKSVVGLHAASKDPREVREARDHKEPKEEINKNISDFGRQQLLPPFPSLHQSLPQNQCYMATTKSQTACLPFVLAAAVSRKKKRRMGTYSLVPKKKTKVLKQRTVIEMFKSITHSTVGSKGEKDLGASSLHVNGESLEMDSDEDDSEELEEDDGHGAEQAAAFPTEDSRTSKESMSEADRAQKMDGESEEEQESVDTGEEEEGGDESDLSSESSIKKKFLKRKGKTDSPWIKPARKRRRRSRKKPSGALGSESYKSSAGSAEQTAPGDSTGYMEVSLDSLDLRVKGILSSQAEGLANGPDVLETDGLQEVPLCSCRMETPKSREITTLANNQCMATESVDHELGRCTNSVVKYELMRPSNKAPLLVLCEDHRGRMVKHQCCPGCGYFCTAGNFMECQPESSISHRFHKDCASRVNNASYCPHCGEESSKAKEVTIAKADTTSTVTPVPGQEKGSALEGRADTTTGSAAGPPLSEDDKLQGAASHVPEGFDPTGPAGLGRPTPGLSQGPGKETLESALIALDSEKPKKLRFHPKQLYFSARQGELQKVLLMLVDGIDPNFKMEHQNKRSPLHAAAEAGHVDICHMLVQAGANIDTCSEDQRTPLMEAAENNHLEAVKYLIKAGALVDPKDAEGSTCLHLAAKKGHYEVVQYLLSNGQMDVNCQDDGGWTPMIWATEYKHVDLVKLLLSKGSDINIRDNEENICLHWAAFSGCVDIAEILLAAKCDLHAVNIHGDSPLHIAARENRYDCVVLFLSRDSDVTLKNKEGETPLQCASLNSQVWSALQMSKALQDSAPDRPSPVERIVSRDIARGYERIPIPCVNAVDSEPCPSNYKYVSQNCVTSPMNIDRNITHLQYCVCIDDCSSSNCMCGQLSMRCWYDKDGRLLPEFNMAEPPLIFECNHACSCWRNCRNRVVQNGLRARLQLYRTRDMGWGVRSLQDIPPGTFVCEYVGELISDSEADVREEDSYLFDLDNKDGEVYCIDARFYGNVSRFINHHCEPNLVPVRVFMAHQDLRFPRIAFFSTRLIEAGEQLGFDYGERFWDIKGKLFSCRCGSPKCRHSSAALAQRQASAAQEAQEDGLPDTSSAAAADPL

B1: UBAP2 (protein, UniProt Q5T6F2 1-1119, looked up)
Ubiquitin-associated protein 2: MMTSVSSDHCRGAREKPQISAAQSTQPQKQVVQATAEQMRLAQVIFDKNDSDFEAKVKQLMEVTGKNQDECIVALHDCNGDVNKAINILLEGNSDTTSWETVGCKKKNFAKENSENKENREKKSEKESSRGRGNNNRKGRGGNRGREFRGEENGIDCNQVDKPSDRGKRARGRGFGRGRGRGAGRFSTQGMGTFNPADYSDSTSTDVCGTKLVVWEAAQNGADEGTELASNTHNIAQDLSNKSSYGLKGAWKNSVEEWTTEDWTEDLSETKVFTASSAPAENHILPGQSIDLVALLQKPVPHSQASEANSFETSQQQGFGQALVFTNSQHNNQMAPGTGSSTAVNSCSPQSLSSVLGSGFGELAPPKMANITSSQILDQLKAPSLGQFTTTPSTQQNSTSHPTTTTSWDLKPPTSQSSVLSHLDFKSQPEPSPVLSQLSQRQQHQSQAVTVPPPGLESFPSQAKLRESTPGDSPSTVNKLLQLPSTTIENISVSVHQPQPKHIKLAKRRIPPASKIPASAVEMPGSADVTGLNVQFGALEFGSEPSLSEFGSAPSSENSNQIPISLYSKSLSEPLNTSLSMTSAVQNSTYTTSVITSCSLTSSSLNSASPVAMSSSYDQSSVHNRIPYQSPVSSSESAPGTIMNGHGGGRSQQTLDTPKTTGPPSALPSVSSLPSTTSCTALLPSTSQHTGDLTSSPLSQLSSSLSSHQSSLSAHAALSSSTSHTHASVESASSHQSSATFSTAATSVSSSASSGASLSSSMNTANSLCLGGTPASASSSSSRAAPLVTSGKAPPNLPQGVPPLLHNQYLVGPGGLLPAYPIYGYDELQMLQSRLPVDYYGIPFAAPTALASRDGSLANNPYPGDVTKFGRGDSASPAPATTPAQPQQSQSQTHHTAQQPFVNPALPPGYSYTGLPYYTGMPSAFQYGPTMFVPPASAKQHGVNLSTPTPPFQQASGYGQHGYSTGYDDLTQGTAAGDYSKGGYAGSSQAPNKSAGSGPGKGVSVSSSTTGLPDMTGSVYNKTQTFDKQGFHAGTPPPFSLPSVLGSTGPLASGAAPGYAPPPFLHILPAHQQPHSQLLHHHLPQDAQSGSGQRSQPSSLQPKSQASKPAYGNSPYWTN
B2: TRMT61A (protein, UniProt Q96FX7 2-289, looked up)
tRNA …: SFVAYEELIKEGDTAILSLGHGAMVAVRVQRGAQTQTRHGVLRHSVDLIGRPFGSKVTCGRGGWVYVLHPTPELWTLNLPHRTQILYSTDIALITMMLELRPGSVVCESGTGSGSVSHAIIRTIAPTGHLHTVEFHQQRAEKAREEFQEHRVGRWVTVRTQDVCRSGFGVSHVADAVFLDIPSPWEAVGHAWDALKVEGGRFCSFSPCIEQVQRTCQALAARGFSELSTLEVLPQVYNVRTVSLPPPDLGTGTDGPAGSDTSPFRSGTPMKEAVGHTGYLTFATKTPG
B3: PABPN1 (protein, UniProt Q86U42 2-306, looked up)
Polyadenylate-binding protein …: AAAAAAAAAAGAAGGRGSGPGRRRHLVPGAGGEAGEGAPGGAGDYGNGLESEELEPEELLLEPEPEPEPEEEPPRPRAPPGAPGPGPGSGAPGSQEEEEEPGLVEGDPGDGAIEDPELEAIKARVREMEEEAEKLKELQNEVEKQMNMSPPPGNAGPVIMSIEEKMEADARSIYVGNVDYGATAEELEAHFHGCGSVNRVTILCDKFSGHPKGFAYIEFSDKESVRTSLALDESLFRGRQIKVIPKRTNRPGISTTDRGFPRARYRARTTNYNSSRSRFYSGFNSRPRGRVYRGRARATSWYSPY

Tests used:
[1] = test system: 3×MBT domain of L3MBTL1; assay: Triple SILAC pull-down, 3xMBT/3xMBTD355N ratio (cytoplasmic, nuclear and chromatin fractions of 293T cells); format: binding, human; conditions: SILAC ratio, pull-down 3xMBT vs 3xMBTD355N; for 3xMBT/D355N UNC Heavy: experiment with UNC0638 in heavy SILAC media; for 3xMBT/D355N UNC Light: experiment with UNC0638 in light SILAC media;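 for all read-outs here: proteins quantified with MaxQuant, requiring at least two unique peptides and quantification in both label directions, normalized to the mean of proteins from a digested loading control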
[2] = molecular target: T1, G9a and GLP; assay: Triple SILAC pull-down after UNC0638 treatment of 293T cells, DMSO/UNC0638 ratio of protein captured by 3×MBT; format: cell-based; design: cells were treated for 24 hours with UNC0638 at 2.5 μM or DMSO vehicle control; endogenous in cells; host or cells: HEK 293T; conditions: for Relative to UNC0638 UNC Heavy / Relative to UNC0638 UNC Light: SILAC ratio DMSO/UNC0638 of protein pulled down with 3xMBT; for Relative to UNC0638 UNC Heavy: UNC0638 in heavy SILAC media; for Relative to UNC0638 UNC Light: UNC0638 in light SILAC media; for Relative to UNC0638 Average: average of UNC Light and UNC Heavy experiments;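 for all read-outs here: mass spectrometry (Q-Exactive) SILAC quantitation, DMSO/UNC0638 ratio computed after subtracting 3×MBTD355N mutant pull-down background, only proteins with at least twofold 3×MBT over mutant signal considered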

| Molecule | 3xMBT/D355N UNC Heavy [1] | 3xMBT/D355N UNC Light [1] | Relative to UNC0638 UNC Heavy [2] | Relative to UNC0638 UNC Light [2] | Relative to UNC0638 Average [2] |
| --- | --- | --- | --- | --- | --- |
| B1 | 2.90 log base 2 | 1.92 log base 2 | 0.20 log base 2 | 0.04 log base 2 | 0.12 log base 2 |
| B2 | 2.78 log base 2 | 3.82 log base 2 | −0.07 log base 2 | 0.29 log base 2 | 0.11 log base 2 |
| B3 | 3.77 log base 2 | 4.04 log base 2 | 0.21 log base 2 | 0.04 log base 2 | 0.13 log base 2 |
